Source: the supplement of paper PMC5998384

Columns and labels:
HeLa Kyoto [1] = test: solubility in G1/S (NP-40 vs SDS abundance) (log2 ratio); higher = more soluble; details: cell cycle stage: G1/S
HeLa Kyoto [2] = test: thermal stability score vs G1/S (z-score of summed log2 fold changes over temperatures); higher = more thermally stable than in G1/S
HeLa Kyoto [3] = test: melting temperature (median over replicates), in situ; higher = more thermally stable
HeLa Kyoto [4] = test: solubility change mitosis vs G1/S (difference of NP-40 vs SDS log2 ratios) (log2 ratio difference); higher = more soluble in mitosis
[5] = cell cycle stage: early G1 (4.5 h after nocodazole release)
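Wherever melting temperature (median over replicates), in situ is given: HeLa Kyoto cells synchronized by double thymidine or nocodazole block, proteins quantified by TMT10plex mass spectrometry, three independent biological replicates.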
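Wherever solubility change mitosis vs G1/S (difference of NP-40 vs SDS log2 ratios) is given: synchronized HeLa Kyoto cells (double thymidine block for G1/S, nocodazole release for mitosis), protein amounts in NP-40 versus SDS lysates quantified by mass spectrometry, three biological replicates.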
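Wherever solubility in G1/S (NP-40 vs SDS abundance) is given: HeLa Kyoto cells arrested at G1/S by double thymidine block, proteins quantified by TMT10plex mass spectrometry in mild NP-40 versus SDS extracts, three biological replicates.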
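Wherever thermal stability score vs G1/S (z-score of summed log2 fold changes over temperatures) is given: synchronized HeLa Kyoto cells, proteins quantified by TMT10plex mass spectrometry, three biological replicates, mitosis taken 0.5 h after nocodazole release, G1/S directly after double thymidine block.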

Sequence	solubility in G1/S (log2) (HeLa Kyoto [1])	thermal stability score (HeLa Kyoto [2]; [5])	thermal stability score (HeLa Kyoto [2]; cell cycle stage: mitosis)	melting temperature (HeLa Kyoto [3]; cell cycle stage: G1/S) [°C]	melting temperature (HeLa Kyoto [3]; cell cycle stage: mitosis) [°C]	solubility change mitosis (log2) (HeLa Kyoto [4])
MPSASASRKSQEKPREIMDAAEDYAKERYGISSMIQSQEKPDRVLVRVRDLTIQKADEVVWVRARVHTSRAKGKQCFLVLRQQQFNVQALVAVGDHASKQMVKFAANINKESIVDVEGVVRKVNQKIGSCTQQDVELHVQKIYVISLAEPRLPLQLDDAVRPEAEGEEEGRATVNQDTRLDNRVIDLRTSTSQAVFRLQSGICHLFRETLINKGFVEIQTPKIISAASEGGANVFTVSYFKNNAYLAQSPQLYKQMCICADFEKVFSIGPVFRAEDSNTHRHLTEFVGLDIEMAFNYHYHEVMEEIADTMVQIFKGLQERFQTEIQTVNKQFPCEPFKFLEPTLRLEYCEALAMLREAGVEMGDEDDLSTPNEKLLGHLVKEKYDTDFYILDKYPLAVRPFYTMPDPRNPKQSNSYDMFMRGEEILSGAQRIHDPQLLTERALHHGIDLEKIKAYIDSFRFGAPPHAGGGIGLERVTMLFLGLHNVRQTSMFPRDPKRLTP [DARS]	-0.115	0.0385	4.02	49.4	49.2	-0.127
MPSATSHSGSGSKSSGPPPPSGSSGSEAAAGAGAAAPASQHPATGTGAVQTEAMKQILGVIDKKLRNLEKKKGKLDDYQERMNKGERLNQDQLDAVSKYQEVTNNLEFAKELQRSFMALSQDIQKTIKKTARREQLMREEAEQKRLKTVLELQYVLDKLGDDEVRTDLKQGLNGVPILSEEELSLLDEFYKLVDPERDMSLRLNEQYEHASIHLWDLLEGKEKPVCGTTYKVLKEIVERVFQSNYFDSTHNHQNGLCEEEEAASAPAVEDQVPEAEPEPAEEYTEQSEVESTEYVNRQFMAETQFTSGEKEQVDEWTVETVEVVNSLQQQPQAASPSVPEPHSLTPVAQADPLVRRQRVQDLMAQMQGPYNFIQDSMLDFENQTLDPAIVSAQPMNPTQNMDMPQLVCPPVHSESRLAQPNQVPVQPEATQVPLVSSTSEGYTASQPLYQPSHATEQRPQKEPIDQIQATISLNTDQTTASSSLPAASQPQVFQAGTSKPLHSSGINVNAAPFQSMQTVFNMNAPVPPVNEPETLKQQNQYQASYNQSFSSQPHQVEQTELQQEQLQTVVGTYHGSPDQSHQVTGNHQQPPQQNTGFPRSNQPYYNSRGVSRGGSRGARGLMNGYRGPANGFRGGYDGYRPSFSNTPNSGYTQSQFSAPRDYSGYQRDGYQQNFKRGSGQSGPRGAPRGRGGPPRPNRGMPQMNTQQVN [CAPRIN1]	-0.0442	-0.0976	-1.01	54.8	54.9	0.14
MPSKSLVMEYLAHPSTLGLAVGVACGMCLGWSLRVCFGMLPKSKTSKTHTDTESEASILGDSGEYKMILVVRNDLKMGKGKVAAQCSHAAVSAYKQIQRRNPEMLKQWEYCGQPKVVVKAPDEETLIALLAHAKMLGLTVSLIQDAGRTQIAPGSQTVLGIGPGPADLIDKVTGHLKLY [PTRH2]	0.447	-0.625	-2.48	52.3	52.6	0.0782
MPSPRPVLLRGARAALLLLLPPRLLARPSLLLRRSLSAASCPPISLPAAASRSSMDGAGAEEVLAPLRLAVRQQGDLVRKLKEDKAPQVDVDKAVAELKARKRVLEAKELALQPKDDIVDRAKMEDTLKRRFFYDQAFAIYGGVSGLYDFGPVGCALKNNIIQTWRQHFIQEEQILEIDCTMLTPEPVLKTSGHVDKFADFMVKDVKNGECFRADHLLKAHLQKLMSDKKCSVEKKSEMESVLAQLDNYGQQELADLFVNYNVKSPITGNDLSPPVSFNLMFKTFIGPGGNMPGYLRPETAQGIFLNFKRLLEFNQGKLPFAAAQIGNSFRNEISPRSGLIRVREFTMAEIEHFVDPSEKDHPKFQNVADLHLYLYSAKAQVSGQSARKMRLGDAVEQGVINNTVLGYFIGRIYLYLTKVGISPDKLRFRQHMENEMAHYACDCWDAESKTSYGWIEIVGCADRSCYDLSCHARATKVPLVAEKPLKEPKTVNVVQFEPSKGAIGKAYKKDAKLVMEYLAICDECYITEMEMLLNEKGEFTIETEGKTFQLTKDMINVKRFQKTLYVEEVVPNVIEPSFGLGRIMYTVFEHTFHVREGDEQRTFFSFPAVVAPFKCSVLPLSQNQEFMPFVKELSEALTRHGVSHKVDDSSGSIGRRYARTDEIGVAFGVTIDFDTVNKTPHTATLRDRDSMRQIRAEISELPSIVQDLANGNITWADVEARYPLFEGQETGKKETIEE [GARS]	0.0194	-2.91	-2.03	59.4	59.5	-0.136
MPSTDLLMLKAFEPYLEILEVYSTKAKNYVNGHCTKYEPWQLIAWSVVWTLLIVWGYEFVFQPESLWSRFKKKCFKLTRKMPIIGRKIQDKLNKTKDDISKNMSFLKVDKEYVKALPSQGLSSSAVLEKLKEYSSMDAFWQEGRASGTVYSGEEKLTELLVKAYGDFAWSNPLHPDIFPGLRKIEAEIVRIACSLFNGGPDSCGCVTSGGTESILMACKAYRDLAFEKGIKTPEIVAPQSAHAAFNKAASYFGMKIVRVPLTKMMEVDVRAMRRAISRNTAMLVCSTPQFPHGVIDPVPEVAKLAVKYKIPLHVDACLGGFLIVFMEKAGYPLEHPFDFRVKGVTSISADTHKYGYAPKGSSLVLYSDKKYRNYQFFVDTDWQGGIYASPTIAGSRPGGISAACWAALMHFGENGYVEATKQIIKTARFLKSELENIKGIFVFGNPQLSVIALGSRDFDIYRLSNLMTAKGWNLNQLQFPPSIHFCITLLHARKRVAIQFLKDIRESVTQIMKNPKAKTTGMGAIYGMAQTTVDRNMVAELSSVFLDSLYSTDTVTQGSQMNGSPKPH [SGPL1]	-0.0885	-0.294	0.467	53.3	54.3	-0.101
MPVAVGPYGQSQPSCFDRVKMGFVMGCAVGMAAGALFGTFSCLRIGMRGRELMGGIGKTMMQSGGTFGTFMAIGMGIRC [ROMO1]	-0.104	-0.746	-1.2	54.5	54.9	0.0021
